Assay results reported in publication PMC3535264.

Columns and labels:
[1] = biological target: tetrasome (DNA-(H3-H4)2 tetramer complex) (Xenopus laevis) (UniProt P84233); assay: FRET or BRET
[2] = biological target: mouse Nap1 (mNap1) single-cysteine mutant labeled with Alexa 546-C5-maleimide (mouse) (UniProt P28656); assay: other fluorescence titration

Substance	Kd [1] [nM]	Kd [2] [nM]
H2A-H2B_(A488) histone dimer (from UniProt P06897 1-130) (complex)	0.8	
uH2A containing histone dimer (uH2A-H2B) (from UniProt P0CG48 1-76; P02281 1-126) (complex)		0.5
uH2B containing histone dimer (H2A-uH2B) (from UniProt P06897 1-130; P0CG48 1-76) (complex)		0.4

Continued, values first:

Kd [1] [nM]	Kd [2] [nM]	Substance
0.7		H2A_(A488)-H2B histone dimer (from UniProt P02281 1-126) (complex)
	0.8	unmodified H2A-H2B histone dimer (from UniProt P06897 1-130; P02281 1-126) (complex)
